Molecular target: T1, Extra Domain-A (ED-A) isoform of fibronectin in bone marrow biopsies of AML patients (human, UniProt P02751 1722-1811, limits assumed)
T1 construct: The antigen was not used as an isolated protein; It is the native protein in patient tissue sections; also called A-FN; EDA domain of fibronectin
Test: immunohistochemistry, bone marrow biopsies of two patients with extramedullary AML, biotinylated SIP 2 ug/ml
Description: For immunohistochemistry, biotinylated antibodies were used in small immunoprotein format (SIP) under identical conditions (2 μg/ml). Aliquots were prepared from a single batch of antibodies, frozen and used only once to ensure reproducibility of immunohistochemical stainings. Frozen tissue samples were stored at −80° C. Sections of 10 μm thickness were fixed in chilled acetone, rehydrated in TBS buffer (50 mM Tris, 100 mM NaCl, 0.001% Aprotinin, pH 7.4) and blocked with 20% fetal calf serum in TBS. The antibodies were added onto the sections in a final concentration of 2 μg/mL in 3% bovine serum albumin (BSA)/TBS solution and incubated for one hour. After washing in TBS, bound antibodies were detected with streptavidin-biotinylated alkaline phosphatase complex (Biospa, Milan, Italy) in TBS 3% BSA+2 mM MgCl₂. The Fast Red substrate (Sigma) was used for detection of phosphatase activity. Sections were counterstained with Gill's hematoxylin No. 2 (Sigma) and mounted with Glycergel mounting medium (Dako, Glostrup, Denmark).

T1 sequence (P02751 1722-1811 limits assumed): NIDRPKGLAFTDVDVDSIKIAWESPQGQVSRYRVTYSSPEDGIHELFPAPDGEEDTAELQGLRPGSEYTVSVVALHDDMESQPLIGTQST

binding result: binds
B1: F8-SIP (V5L/K18R) (antibody)
chain: EVQLLESGGGLVQPGGSLRLSCAASGFTFSLFTMSWVRQAPGKGLEWVSAISGSGGSTYYADSVKGRFTISRDNSKNTLYLQMNSLRAEDTAVYYCAKSTHLYLFDYWGQGTLVTVSSGGGGSGGGSGGGGGEIVLTQSPGTLSLSPGERATLSCRASQSVSMPFLAWYQQKPGQAPRLLIYGASSRATGIPDRFSGSGSGTDFTLTISRLEPEDFAVYYCQQMRGRPPTFGQGTKVEIKSGGSGGPRAAPEVYAFATPEWPGSRDKRTLACLIQNFMPEDISVQWLHNEVQLPDARHSTTQPRKTKGSGFFVFSRLEVTRAEWEQKDEFICRAVHEAASPSQTVQRAVSVNPESSRRGGC
modifications: biotinylated (sites not given)
notes: Human monoclonal mini-immunoglobulin (small immunoprotein, SIP); It was used biotinylated at 2 ug/ml on tissue sections; also called F8 (V5L/K18R)

— patent US20120121506A1 (PHILOGEN S P A, published 2012)
